In the supplement of paper PMC10724198:
± gives the standard deviation of the averaged measurements.

Columns and labels:
Saccharomyces cerevisiae [1] = assay: protein stability index of tFT-peptide fusion (C-terminal peptide) (PSI (0-1 scale)); higher = more stable (slower turnover); conditions: genetic background: wild type; temperature: 30 C
Saccharomyces cerevisiae [2] = assay: as above
Protocol: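 MPS profiling in S. cerevisiae of the tFT-X12 degron library: putative degron peptides plus stable controls, 12 aa, fused to the C-terminus of a sfGFP-mCherry timer. Cells are FACS-sorted into 8 mCherry/sfGFP bins and deep-sequenced. PSI runs from 0 (unstable) to 1 (stable). Backgrounds are wild type, das1Δ and doa10Δ at 30 °C, and wild type, das1Δ, cdc34-1 and cdc53-1 at 37 °C; 2-3 technical replicates each.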

[3] = genetic background: cdc34-1, temperature: 37 C
[4] = genetic background: cdc53-1, temperature: 37 C
[5] = genetic background: das1 deletion, temperature: 30 C
[6] = genetic background: das1 deletion, temperature: 37 C
[7] = genetic background: doa10 deletion, temperature: 30 C
[8] = genetic background: wild type, temperature: 30 C
[9] = genetic background: wild type, temperature: 37 C
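Further: PSI is a weighted mean of sequencing reads over stability bins, variants kept only with over 10 reads, mCherry proximal and sfGFP distal, peptide attached via GGGS linker.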

Sequence	protein stability index (Saccharomyces cerevisiae [1])	protein stability index (Saccharomyces cerevisiae [2]; [3])	protein stability index (Saccharomyces cerevisiae [2]; [4])	protein stability index (Saccharomyces cerevisiae [2]; [5])	protein stability index (Saccharomyces cerevisiae [2]; [6])	protein stability index (Saccharomyces cerevisiae [2]; [7])	protein stability index (Saccharomyces cerevisiae [2]; [8])	protein stability index (Saccharomyces cerevisiae [2]; [9])
ILFVCVCVLHVG	0.242 ± 0.025	0.112 ± 0.0052	0.198 ± 0.012	0.17 ± 0.027	0.307 ± 0.0048	0.121 ± 0.013	0.141 ± 0.019	0.252 ± 0.021
LFFLSASFFFFF	0.289 ± 0.0064	0.458 ± 0.011	0.554 ± 0.0066	0.449 ± 0.034	0.547 ± 0.0075	0.222 ± 0.0092	0.207 ± 0.033	0.356 ± 0.067
CLQYRACLILLT	0.425 ± 0.0091	0.406 ± 0.014	0.3653 ± 0.0014	0.365 ± 0.015	0.494 ± 0.0041	0.456 ± 0.0093	0.343 ± 0.015	0.425 ± 0.0086
KLRMGRYIVRII	0.259 ± 0.0076	0.6637 ± 0.0034	0.661 ± 0.041	0.569 ± 0.022	0.6655 ± 0.0023	0.152 ± 0.024	0.135 ± 0.019	0.242 ± 0.012
GFLRTVHFLLLG	0.354 ± 0.054	0.634 ± 0.1	0.675 ± 0.0077	0.575 ± 0.012	0.721 ± 0.037	0.225 ± 0.0044	0.251 ± 0.035	0.4702 ± 0.0038
VFYRPFFVLFFV	0.114 ± 0.0065	0.246 ± 0.026	0.228 ± 0.004	0.265 ± 0.022	0.413 ± 0.011	0.113 ± 0.016	0.0946 ± 0.022	0.152 ± 0.0038
WSNICFWCGVWS	0.458 ± 0.057	0.685 ± 0.027	0.826 ± 0.011	0.673 ± 0.038	0.815 ± 0.033	0.356 ± 0.0059	0.39 ± 0.024	0.6615 ± 0.0049
GFPFLCSFLLAS	0.382 ± 0.013	0.384 ± 0.0044	0.412 ± 0.0058	0.298 ± 0.04	0.472 ± 0.011	0.253 ± 0.005	0.291 ± 0.026	0.453 ± 0.005
GGSIKRFVILVL	0.406 ± 0.022	0.416 ± 0.027	0.489 ± 0.0076	0.3 ± 0.044	0.525 ± 0.017	0.259 ± 0.006	0.304 ± 0.024	0.482 ± 0.027
SLFPHIFFFFFA	0.49 ± 0.013	0.43487 ± 0.00035	0.467 ± 0.015	0.386 ± 0.036	0.428 ± 0.0029	0.343 ± 0.015	0.295 ± 0.032	0.384 ± 0.0099
FQWILYIAKRVV	0.338 ± 0.021	0.556 ± 0.095	0.671 ± 0.04	0.473 ± 0.036	0.603 ± 0.0069	0.259 ± 0.059	0.261 ± 0.044	0.442 ± 0.051
LAVFSSPELSFP	0.756 ± 0.024	0.727 ± 0.012	0.788 ± 0.015	0.6631 ± 0.0019	0.761 ± 0.013	0.66 ± 0.034	0.676 ± 0.0088	0.777 ± 0.0036
VCWCVVVLEFGL	0.313 ± 0.013	0.15 ± 0.049	0.367 ± 0.15	0.197 ± 0.031	0.363 ± 0.0062	0.168 ± 0.012	0.185 ± 0.029	0.267 ± 0.044
LFIVTFIPVLFS	0.494 ± 0.0074	0.49 ± 0.064	0.545 ± 0.034	0.374 ± 0.016	0.623 ± 0.0088	0.41 ± 0.0081	0.384 ± 0.041	0.59 ± 0.08
IVLCVFTVDSDF	0.407 ± 0.0073	0.36 ± 0.0079	0.478 ± 0.058	0.314 ± 0.024	0.5441 ± 0.0044	0.266 ± 0.006	0.291 ± 0.021	0.5126 ± 0.0039
VLLCFFLGIVGF	0.396 ± 0.045	0.36 ± 0.045	0.487 ± 0.035	0.322 ± 0.024	0.488 ± 0.011	0.296 ± 0.0087	0.299 ± 0.012	0.489 ± 0.027
VVLVLLCIGRLL	0.376 ± 0.0063	0.367 ± 0.012	0.511 ± 0.026	0.305 ± 0.033	0.5545 ± 0.0033	0.27 ± 0.0062	0.3 ± 0.026	0.475 ± 0.011
VFSVSVLFLFFH	0.377 ± 0.032	0.286 ± 0.0084	0.392 ± 0.0056	0.282 ± 0.034	0.456 ± 0.015	0.251 ± 0.011	0.242 ± 0.038	0.381 ± 0.019
PCVPRLLPLQLS	0.252 ± 0.03	0.628 ± 0.019	0.795 ± 0.028	0.6546 ± 0.005	0.758 ± 0.03	0.216 ± 0.0089	0.233 ± 0.0069	0.363 ± 0.0044
IFIVLDFRCVSS	0.339 ± 0.016	0.302 ± 0.1	0.463 ± 0.024	0.256 ± 0.016	0.4371 ± 0.0012	0.243 ± 0.011	0.242 ± 0.043	0.381 ± 0.046

Sequence	protein stability index (Saccharomyces cerevisiae [1])	protein stability index (Saccharomyces cerevisiae [2]; [3])	protein stability index (Saccharomyces cerevisiae [2]; [4])	protein stability index (Saccharomyces cerevisiae [2]; [5])	protein stability index (Saccharomyces cerevisiae [2]; [6])	protein stability index (Saccharomyces cerevisiae [2]; [7])	protein stability index (Saccharomyces cerevisiae [2]; [8])	protein stability index (Saccharomyces cerevisiae [2]; [9])
GVVRKLCHWVVA	0.426 ± 0.04	0.476 ± 0.0049	0.516 ± 0.031	0.362 ± 0.027	0.525 ± 0.0015	0.286 ± 0.0046	0.322 ± 0.016	0.469 ± 0.013
YCLSCLAKASLM	0.28811 ± 0.00011	0.495 ± 0.036	0.606 ± 0.0019	0.524 ± 0.021	0.5686 ± 0.0039	0.164 ± 0.0029	0.19 ± 0.0066	0.38 ± 0.011
TPRQYVVSLSLC	0.19 ± 0.067	0.579 ± 0.027	0.657 ± 0.033	0.587 ± 0.039	0.703 ± 0.015	0.131 ± 0.0045	0.123 ± 0.0062	0.227 ± 0.0063
FFCVLGLSFFCL	0.542 ± 0.17	0.609 ± 0.065	0.618 ± 0.016	0.568 ± 0.021	0.58942 ± 0.00014	0.554 ± 0.039	0.549 ± 0.021	0.566 ± 0.016
LLGGRVLWAWRV	0.376 ± 0.022	0.653 ± 0.045	0.689 ± 0.052	0.626 ± 0.016	0.737 ± 0.019	0.155 ± 0.026	0.199 ± 0.022	0.3907 ± 0.0025
CRAAMYSFFLNF	0.427 ± 0.025	0.674 ± 0.063	0.75 ± 0.017	0.651 ± 0.037	0.7584 ± 0.0043	0.236 ± 0.0046	0.299 ± 0.0089	0.529 ± 0.022
VPQQWFAETGRC	0.745 ± 0.019	0.72 ± 0.031	0.763 ± 0.036	0.668 ± 0.026	0.7455 ± 0.0051	0.657 ± 0.038	0.662 ± 0.028	0.742 ± 0.014
LYYSVIFLFLSW	0.339 ± 0.047	0.255 ± 0.0028	0.306 ± 0.023	0.232 ± 0.033	0.371 ± 0.016	0.272 ± 0.036	0.208 ± 0.026	0.334 ± 0.033
FCLGFRFFVFFL	0.218 ± 0.032	0.26 ± 0.011	0.291 ± 0.018	0.271 ± 0.027	0.408 ± 0.013	0.208 ± 0.012	0.163 ± 0.022	0.288 ± 0.021
FLFLSPLALHVS	0.304 ± 0.01	0.444 ± 0.03	0.494 ± 0.014	0.412 ± 0.022	0.513 ± 0.014	0.177 ± 0.0097	0.212 ± 0.024	0.256 ± 0.011
NLSYFFFSVLFF	0.499 ± 0.032	0.552 ± 0.069	0.562 ± 0.018	0.506 ± 0.033	0.693 ± 0.067	0.62 ± 0.022	0.545 ± 0.068	0.612 ± 0.038
FVLWWGWSWLVV	0.235 ± 0.019	0.213 ± 0.01	0.30626 ± 6.5e-05	0.173 ± 0.027	0.318 ± 0.0055	0.152 ± 0.0023	0.16 ± 0.016	0.2824 ± 0.00063
CGSLDLPHQCLL	0.744 ± 0.059	0.7247 ± 0.0066	0.7844 ± 0.0062	0.677 ± 0.0093	0.7545 ± 0.0062	0.691 ± 0.048	0.693 ± 0.01	0.774 ± 0.0033
LSRFRYFVLTSL	0.261 ± 0.041	0.531 ± 0.026	0.6913 ± 0.0028	0.608 ± 0.018	0.698 ± 0.033	0.146 ± 0.015	0.171 ± 0.019	0.263 ± 0.037
GFFCVWSLLFFN	0.283 ± 0.016	0.328 ± 0.045	0.395 ± 0.016	0.262 ± 0.045	0.449 ± 0.018	0.218 ± 0.031	0.187 ± 0.021	0.385 ± 0.005
GVFFHFFFLFCF	0.43 ± 0.013	0.332 ± 0.025	0.352 ± 0.01	0.324 ± 0.018	0.447 ± 0.0093	0.3913 ± 0.0038	0.297 ± 0.028	0.413 ± 0.0047
LFMLHFLAVLRY	0.308 ± 0.099	0.124 ± 0.054	0.1407 ± 0.00041	0.272 ± 0.037	0.3358 ± 0.003	0.337 ± 0.017	0.242 ± 0.027	0.311 ± 0.011
SGWGGGTWVKMG	0.3093 ± 0.0025	0.537 ± 0.019	0.721 ± 0.046	0.662 ± 0.024	0.76 ± 0.011	0.113 ± 0.013	0.12 ± 0.013	0.191 ± 0.018
CMILVACFYLPS	0.321 ± 0.004	0.285 ± 0.033	0.441 ± 0.061	0.29 ± 0.024	0.455 ± 0.017	0.248 ± 0.0063	0.294 ± 0.017	0.428 ± 0.01
